Experimental data taken from PMC8847575, “HSL1 and BAM1/2 impact epidermal cell development by sensing distinct signaling peptides” (Nature Communications, 2022).
Square brackets hold non-standard residues; d marks the D form. Ends that are not written are not given here. Hyp = O=C(O)[C@@H]1C[C@@H](O)CN1

Assays:
[1] = molecular target: T1, HSL1 (HAESA-LIKE 1) ectodomain (Arabidopsis, UniProt Q9SGP2 17-618); test: ITC; with CLE9^N116S
T1 chain: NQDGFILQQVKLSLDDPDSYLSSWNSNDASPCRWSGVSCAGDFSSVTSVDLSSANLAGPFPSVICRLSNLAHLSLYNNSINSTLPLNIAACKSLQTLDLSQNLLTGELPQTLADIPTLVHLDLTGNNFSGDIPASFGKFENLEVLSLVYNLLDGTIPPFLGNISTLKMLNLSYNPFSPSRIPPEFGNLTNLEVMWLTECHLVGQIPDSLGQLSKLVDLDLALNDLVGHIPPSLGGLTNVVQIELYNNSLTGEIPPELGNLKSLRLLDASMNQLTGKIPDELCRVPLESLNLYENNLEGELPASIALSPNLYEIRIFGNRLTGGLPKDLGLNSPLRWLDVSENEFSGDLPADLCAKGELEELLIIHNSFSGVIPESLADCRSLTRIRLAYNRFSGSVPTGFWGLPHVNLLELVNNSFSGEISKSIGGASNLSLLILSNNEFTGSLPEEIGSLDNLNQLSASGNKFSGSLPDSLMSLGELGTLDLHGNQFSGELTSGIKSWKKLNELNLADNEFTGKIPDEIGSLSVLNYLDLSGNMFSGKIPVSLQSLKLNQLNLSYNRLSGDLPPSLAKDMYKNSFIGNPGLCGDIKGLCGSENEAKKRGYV

[2] = molecular target: T2, biotinylated HSL1 ectodomain with Avi-tag (Arabidopsis, UniProt Q9SGP2 17-618, biotin on the Avi-tag (BirA)); test: GCI, with IDL4
T2 chain: T1 chain

[3] = molecular target: T2, biotinylated HSL1 ectodomain with …; test: GCI, with IDL2
[4] = molecular target: T2, biotinylated HSL1 ectodomain with …; test: in presence of IDL2
[5] = molecular target: T2, biotinylated HSL1 ectodomain with …; test: in presence of IDL3
[6] = molecular target: T1, HSL1 (HAESA-LIKE 1) ectodomain; test: ITC; with IDL3
[7] = molecular target: T2, biotinylated HSL1 ectodomain with …; test: in presence of IDL1
[8] = molecular target: T2, biotinylated HSL1 ectodomain with …; test: GCI, with IDL1
[9] = molecular target: T2, biotinylated HSL1 ectodomain with …; test: GCI, with IDA
[10] = molecular target: T2, biotinylated HSL1 ectodomain with …; test: in presence of IDL4
[11] = molecular target: T2, biotinylated HSL1 ectodomain with …; test: in presence of IDL2
[12] = molecular target: T2, biotinylated HSL1 ectodomain with …; test: in presence of IDL3
[13] = molecular target: T2, biotinylated HSL1 ectodomain with …; test: GCI, with IDL3
[14] = molecular target: T2, biotinylated HSL1 ectodomain with …; test: GCI, with IDL3
[15] = molecular target: T1, HSL1 (HAESA-LIKE 1) ectodomain; test: ITC; with IDL2
[16] = molecular target: T1, HSL1 (HAESA-LIKE 1) ectodomain; test: ITC; with IDA
[17] = molecular target: T2, biotinylated HSL1 ectodomain with …; test: GCI, with IDL1
[18] = molecular target: T1, HSL1 (HAESA-LIKE 1) ectodomain; test: ITC; with IDL4
[19] = molecular target: T2, biotinylated HSL1 ectodomain with …; test: in presence of IDL1
[20] = molecular target: T1, HSL1 (HAESA-LIKE 1) ectodomain; test: ITC; with IDL1
[21] = molecular target: T2, biotinylated HSL1 ectodomain with …; test: in presence of IDL4
[22] = molecular target: T1, HSL1 (HAESA-LIKE 1) ectodomain; test: ITC
[23] = molecular target: T3, HSL1 (HAESA-LIKE 1) ectodomain (Arabidopsis, UniProt Q9SGP2 17-618); test: ITC; peptide (75 to 600 µM) injected into 10 to 30 µM HSL1 or BAM1 ectodomain in the cell; 25 °C; 20 mM sodium citrate pH 5.0, 150 mM NaCl; N fitted to 1; conditions: both partners purified
T3 construct: HSL1 LRR receptor kinase ectodomain, Arabidopsis, residues 17-618, AT1G28440; codon optimised; secreted with an azurocidin or Drosophila BiP signal peptide; also called isolated HSL1 ectodomain; LRR-RK HSL1; source: Trichoplusia ni Tnao38 cells (baculovirus), secreted, purified (Ni2+, Strep-Tactin, TEV cleavage, second Ni2+, SEC)
T3 sequence (looked up): T1 chain

[24] = molecular target: T4, SERK1 (SOMATIC EMBRYOGENESIS RECEPTOR KINASE 1) ectodomain (Arabidopsis, UniProt Q94AG2 24-213); test: crystal structure; HSL1-CLE9-SERK1, mixed 1:1:1.5; 0.2 M K/Na tartrate, 20% PEG 3350; 2.87 Å; conditions: both partners purified
T4 construct: SERK1 ectodomain, Arabidopsis, residues 24-213, AT1G71830; codon optimised; secreted with an azurocidin or Drosophila BiP signal peptide; also called co-receptor SERK1; source: Trichoplusia ni Tnao38 cells (baculovirus), secreted, purified (Ni2+, Strep-Tactin, TEV cleavage, second Ni2+, SEC)
T4 sequence (looked up): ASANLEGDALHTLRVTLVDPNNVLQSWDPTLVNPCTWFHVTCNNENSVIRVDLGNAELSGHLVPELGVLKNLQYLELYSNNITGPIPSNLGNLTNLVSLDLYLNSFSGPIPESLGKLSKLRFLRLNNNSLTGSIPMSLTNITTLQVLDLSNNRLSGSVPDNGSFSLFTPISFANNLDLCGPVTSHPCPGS

[25] = molecular target: T5, BAM1 (BARELY ANY MERISTEM 1) ectodomain (Arabidopsis, UniProt O49545 20-637); test: ITC; peptide (75 to 600 µM) injected into 10 to 30 µM HSL1 or BAM1 ectodomain in the cell; 25 °C; 20 mM sodium citrate pH 5.0, 150 mM NaCl; N fitted to 1; conditions: both partners purified
T5 construct: BAM1 LRR receptor kinase ectodomain, Arabidopsis, residues 20-637, AT5G65700; codon optimised; secreted with an azurocidin or Drosophila BiP signal peptide; also called BAM1 extracellular domain; BAM1 LRR ectodomain; source: Trichoplusia ni Tnao38 cells (baculovirus), secreted, purified (Ni2+, Strep-Tactin, TEV cleavage, second Ni2+, SEC)
T5 sequence (looked up): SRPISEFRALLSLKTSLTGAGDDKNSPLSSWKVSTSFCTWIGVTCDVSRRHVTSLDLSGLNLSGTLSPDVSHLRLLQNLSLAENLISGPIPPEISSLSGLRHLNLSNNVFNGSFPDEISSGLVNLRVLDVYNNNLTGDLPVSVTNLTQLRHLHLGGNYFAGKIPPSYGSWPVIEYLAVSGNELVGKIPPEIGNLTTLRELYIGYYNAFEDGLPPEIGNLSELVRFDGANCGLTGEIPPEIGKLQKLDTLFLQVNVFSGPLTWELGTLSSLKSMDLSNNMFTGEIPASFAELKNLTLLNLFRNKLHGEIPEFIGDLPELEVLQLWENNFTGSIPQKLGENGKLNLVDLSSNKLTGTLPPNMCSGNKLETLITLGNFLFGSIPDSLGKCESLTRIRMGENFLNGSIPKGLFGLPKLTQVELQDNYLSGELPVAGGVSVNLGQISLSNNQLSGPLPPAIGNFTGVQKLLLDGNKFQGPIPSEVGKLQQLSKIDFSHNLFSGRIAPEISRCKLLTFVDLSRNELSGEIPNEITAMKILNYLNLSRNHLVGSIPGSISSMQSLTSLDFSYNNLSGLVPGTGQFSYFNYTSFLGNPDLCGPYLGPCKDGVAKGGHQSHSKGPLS

B1: SERK1 (SOMATIC EMBRYOGENESIS RECEPTOR KINASE 1) ectodomain (domain or fragment)
chain: T4 sequence (looked up)
B1 was tested, and the Kd [1] was 170 nM, the Kd [2] was 12.5 nM and the Kd [3] was 9 nM. For the same binder, the koff [4] was 0.00011 s⁻¹, the koff [5] was 0.00026 s⁻¹ and the Kd [6] was 26 nM. It also gave a koff [7] of 0.00018 s⁻¹, a koff [8] of 0.00018 s⁻¹ and a Kd [9] of 9 nM. It also gave a Kd [10] of 10.7 nM, a Kd [11] of 1.5 nM and a Kd [12] of 8.5 nM. It also gave a Kd [13] of 1 nM, a koff [14] of 3e-05 s⁻¹ and a Kd [15] of 16 nM. For the same binder, the Kd [16] was 22 nM, the Kd [17] was 12.5 nM and the Kd [18] was 49 nM. The Kd [19] was 12.5 nM, the Kd [20] was 44 nM and the koff [21] was 0.00013 s⁻¹.

B2: CLE9^N116S peptide (peptide, UniProt Q9FZE4 109-120, looked up)
peptide: RLVPSGPSPLHN
notes: CLE9 mature dodecapeptide with Asn116 changed to Ser; also called Asn116^CLE9 to a Ser
For B2, the Kd [22] was 7150 nM and the binding result [23] was “binds”.

B3: CLE9 mature peptide (peptide, UniProt Q9FZE4 109-120, looked up)
peptide: RLV[Hyp]SG[Hyp]NPLHN
notes: CLE9 mature dodecapeptide, AT1G26600; printed residues R109, L110, V111, Hyp112, Ser113, Hyp115, Asn116; also called wild-type CLE9 peptide
B3 was tested, and the binding result [24] was “binds” and the Kd [25] was 100 nM.
